Data reported in US20120316071A1.

Experiments:
[1] = molecular target: rHuman CD44/Fc Chimera, CF (R&D Systems Cat#3660-CD) (human) (UniProt P16070); assay: Multispot ECL (MSD), antigen spotted on plate, Fab 85.0 nM; blank spot 292
[2] = molecular target: rHuman HGF R/c-MET/Fc Chimera, CF (R&D Systems Cat#358-MT/CF) (human) (UniProt P08581); assay: as above
[3] = molecular target: rHuman IGF-1 sR, (IGF-1 sR), CF (R&D Systems Cat#391-GR) (human) (UniProt P08069); assay: as above
[4] = molecular target: rHuman Notch-1/Fc Chimera, CF (R&D Systems Cat#3647-TK) (human) (UniProt P46531); assay: as above
[5] = molecular target: rHuman ErbB2/Fc Chimera, CF (R&D Systems Cat#1129-ER) (human) (UniProt P04626); assay: as above
[6] = molecular target: rHuman P-Cadherin/Fc Chimera, CF (R&D Systems Cat#861-PC) (human) (UniProt P22223); assay: as above
[7] = molecular target: rHuman EGF R/Fc Chimera, CF (R&D Systems Cat#344-ER) (human) (UniProt P00533); assay: as above
[8] = molecular target: rHuman Erythropoietin R/Fc Chimera, CF (R&D Systems Cat#963-ER) (human) (UniProt P19235); assay: as above
rHuman Erythropoietin R/Fc Chimera, CF (R&D Systems Cat#963-ER) (human), sequence (P19235 25-250, change not shown): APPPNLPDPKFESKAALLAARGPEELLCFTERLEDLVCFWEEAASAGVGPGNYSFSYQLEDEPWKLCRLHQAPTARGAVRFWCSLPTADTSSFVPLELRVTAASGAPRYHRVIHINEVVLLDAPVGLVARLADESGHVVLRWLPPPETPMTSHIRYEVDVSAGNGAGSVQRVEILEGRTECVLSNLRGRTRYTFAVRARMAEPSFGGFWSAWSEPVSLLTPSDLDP

[9] = molecular target: rHuman CD44/Fc Chimera, CF (R&D Systems Cat#3660-CD) (human) (UniProt P16070); assay: Multispot ECL (MSD), antigen spotted on plate, Fab 340 nM; blank spot 554
[10] = molecular target: rHuman HGF R/c-MET/Fc Chimera, CF (R&D Systems Cat#358-MT/CF) (human) (UniProt P08581); assay: as above
[11] = molecular target: rHuman IGF-1 sR, (IGF-1 sR), CF (R&D Systems Cat#391-GR) (human) (UniProt P08069); assay: as above
[12] = molecular target: rHuman Notch-1/Fc Chimera, CF (R&D Systems Cat#3647-TK) (human) (UniProt P46531); assay: as above
[13] = molecular target: rHuman ErbB2/Fc Chimera, CF (R&D Systems Cat#1129-ER) (human) (UniProt P04626); assay: as above
[14] = molecular target: rHuman P-Cadherin/Fc Chimera, CF (R&D Systems Cat#861-PC) (human) (UniProt P22223); assay: as above
[15] = molecular target: rHuman EGF R/Fc Chimera, CF (R&D Systems Cat#344-ER) (human) (UniProt P00533); assay: as above
[16] = molecular target: rHuman Erythropoietin R/Fc Chimera, CF (R&D Systems Cat#963-ER) (human) (UniProt P19235); assay: as above
[17] = molecular target: rHuman CD44/Fc Chimera, CF (R&D Systems Cat#3660-CD) (human) (UniProt P16070); assay: Multispot ECL (MSD), antigen spotted on plate, Fab 170 nM; blank spot 262
[18] = molecular target: rHuman HGF R/c-MET/Fc Chimera, CF (R&D Systems Cat#358-MT/CF) (human) (UniProt P08581); assay: as above
[19] = molecular target: rHuman IGF-1 sR, (IGF-1 sR), CF (R&D Systems Cat#391-GR) (human) (UniProt P08069); assay: as above
[20] = molecular target: rHuman Notch-1/Fc Chimera, CF (R&D Systems Cat#3647-TK) (human) (UniProt P46531); assay: as above
[21] = molecular target: rHuman ErbB2/Fc Chimera, CF (R&D Systems Cat#1129-ER) (human) (UniProt P04626); assay: as above
[22] = molecular target: rHuman P-Cadherin/Fc Chimera, CF (R&D Systems Cat#861-PC) (human) (UniProt P22223); assay: as above
[23] = molecular target: rHuman EGF R/Fc Chimera, CF (R&D Systems Cat#344-ER) (human) (UniProt P00533); assay: as above
[24] = molecular target: rHuman Erythropoietin R/Fc Chimera, CF (R&D Systems Cat#963-ER) (human) (UniProt P19235); assay: as above
[25] = molecular target: rHuman CD44/Fc Chimera, CF (R&D Systems Cat#3660-CD) (human) (UniProt P16070); assay: Multispot ECL (MSD), antigen spotted on plate, Fab […]; blank spot 162
[26] = molecular target: rHuman HGF R/c-MET/Fc Chimera, CF (R&D Systems Cat#358-MT/CF) (human) (UniProt P08581); assay: as above
[27] = molecular target: rHuman IGF-1 sR, (IGF-1 sR), CF (R&D Systems Cat#391-GR) (human) (UniProt P08069); assay: as above
[28] = molecular target: rHuman Notch-1/Fc Chimera, CF (R&D Systems Cat#3647-TK) (human) (UniProt P46531); assay: as above
[29] = molecular target: rHuman ErbB2/Fc Chimera, CF (R&D Systems Cat#1129-ER) (human) (UniProt P04626); assay: as above
[30] = molecular target: rHuman P-Cadherin/Fc Chimera, CF (R&D Systems Cat#861-PC) (human) (UniProt P22223); assay: as above
[31] = molecular target: rHuman EGF R/Fc Chimera, CF (R&D Systems Cat#344-ER) (human) (UniProt P00533); assay: as above
[32] = molecular target: rHuman Erythropoietin R/Fc Chimera, CF (R&D Systems Cat#963-ER) (human) (UniProt P19235); assay: as above

rHuman HGF R/c-MET/Fc Chimera, CF (R&D Systems Cat#358-MT/CF) (human), sequence (P08581 25-932, change not shown): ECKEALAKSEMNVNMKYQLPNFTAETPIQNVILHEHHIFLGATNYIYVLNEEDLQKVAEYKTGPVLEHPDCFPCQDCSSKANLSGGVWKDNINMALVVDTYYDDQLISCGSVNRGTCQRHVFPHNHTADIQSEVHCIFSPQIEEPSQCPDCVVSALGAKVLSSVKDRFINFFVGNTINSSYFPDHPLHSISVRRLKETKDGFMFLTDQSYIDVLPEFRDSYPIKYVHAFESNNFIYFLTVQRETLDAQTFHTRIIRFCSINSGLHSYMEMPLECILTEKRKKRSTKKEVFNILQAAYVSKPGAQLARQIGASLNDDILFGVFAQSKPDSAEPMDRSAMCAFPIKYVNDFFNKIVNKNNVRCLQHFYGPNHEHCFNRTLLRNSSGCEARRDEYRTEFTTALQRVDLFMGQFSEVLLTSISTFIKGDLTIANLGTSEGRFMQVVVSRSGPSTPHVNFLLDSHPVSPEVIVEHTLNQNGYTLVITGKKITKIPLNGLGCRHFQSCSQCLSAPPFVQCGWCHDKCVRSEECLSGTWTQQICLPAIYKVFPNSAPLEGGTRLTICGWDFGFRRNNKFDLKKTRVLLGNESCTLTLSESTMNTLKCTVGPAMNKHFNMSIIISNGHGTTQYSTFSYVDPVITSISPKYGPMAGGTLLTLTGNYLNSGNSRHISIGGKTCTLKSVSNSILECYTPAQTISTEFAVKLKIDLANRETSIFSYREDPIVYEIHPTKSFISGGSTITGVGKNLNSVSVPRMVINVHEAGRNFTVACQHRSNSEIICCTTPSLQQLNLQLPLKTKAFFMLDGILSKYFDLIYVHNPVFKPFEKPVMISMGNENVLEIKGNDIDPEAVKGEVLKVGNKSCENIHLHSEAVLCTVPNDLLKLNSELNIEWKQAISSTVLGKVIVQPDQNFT

B1: Fab VH4-34_IGHD7-27*01_IGHJ4*01 & V4-6_IGLJ4*01 (Fab, V domains shown)
VH: QVQLQQWGAGLLKPSETLSLTCAVYGGSFSGYYWSWIRQPPGKGLEWIGEINHSGSTNYNPSLKSRVTISVDTSKNQFSLKLSSVTAADTAVYYCARANWGDYFDYWGQGTLVTVSS
VL: RPVLTQPPSLSASPGATARLPCTLSSDLSVGGKNMFWYQQKPGSSPRLFLYHYSDSDKQLGPGVPSRVSGSKETSSNTAFLLISGLQPEDEADYYCQVYESSANFVFGGGTQLIIL
B1 was tested, and the ECL signal [1] was 693, the ECL signal [2] was 998 and the ECL signal [3] was 891. The ECL signal [4] was 780, the ECL signal [5] was 844 and the ECL signal [6] was 709. It also gave an ECL signal [7] of 1000, an ECL signal [8] of 817 and an ECL signal [9] of 959. For the same binder, the ECL signal [10] was 1240, the ECL signal [11] was 1040 and the ECL signal [12] was 1210. The ECL signal [13] was 1230, the ECL signal [14] was 1160 and the ECL signal [15] was 1210. For the same binder, the ECL signal [16] was 1260, the ECL signal [17] was 660 and the ECL signal [18] was 757. It also gave an ECL signal [19] of 832, an ECL signal [20] of 816 and an ECL signal [21] of 964. For the same binder, the ECL signal [22] was 744, the ECL signal [23] was 826 and the ECL signal [24] was 790. For the same binder, the ECL signal [25] was 522, the ECL signal [26] was 607 and the ECL signal [27] was 646. For the same binder, the ECL signal [28] was 649, the ECL signal [29] was 866 and the ECL signal [30] was 421. The ECL signal [31] was 528 and the ECL signal [32] was 494.
